# Reference: publication PMC3621117 (The FEBS journal, 2013)
# B1: wild-type ExsD (natural protein)
# chain: VVGSDARSRGRVPGYASSSLYRESGIISARQLALLQRMLPRLRLEQLFRCEWLQQRLARGLALGREEVRQILLCAAQDDDGWCSELGDRVNLAVPQSMIDWVLLPVYGWWESLLDQAIPGWRLSLVELETQSRQLRVKSEFWSRVAELEPEQAREELARVAKCQARTQEQVAELAGKLETASALAKSAWPNWQRGMATLLASGGLAGFEPIPEVLECLWQPLCRLDDDVGAADAVQAWLHERNLCQAQDHFYWQS
# Biological target: the molecule itself
# Test: SEC
protein,measurement,value
B1,stoichiometry N,3
